In article PMC12236752 one finds Kd data, which are given here for one substance.

The target of the assay is Avs8A (ECOR07), fused to 6xHis-SUMO (E. coli ECOR07) (UniProt B7LDL1). Nature of the assay: MST.

“Basel 21 major capsid protein (natural protein)” yielded a Kd of 14 nM.

What is called Kd is the equilibrium constant for the complex coming apart. Low readings indicate higher affinity, high ones lower affinity.
